T1: GST-PIF4 (UniProt Q8W2F3 1-430)
T1 sequence: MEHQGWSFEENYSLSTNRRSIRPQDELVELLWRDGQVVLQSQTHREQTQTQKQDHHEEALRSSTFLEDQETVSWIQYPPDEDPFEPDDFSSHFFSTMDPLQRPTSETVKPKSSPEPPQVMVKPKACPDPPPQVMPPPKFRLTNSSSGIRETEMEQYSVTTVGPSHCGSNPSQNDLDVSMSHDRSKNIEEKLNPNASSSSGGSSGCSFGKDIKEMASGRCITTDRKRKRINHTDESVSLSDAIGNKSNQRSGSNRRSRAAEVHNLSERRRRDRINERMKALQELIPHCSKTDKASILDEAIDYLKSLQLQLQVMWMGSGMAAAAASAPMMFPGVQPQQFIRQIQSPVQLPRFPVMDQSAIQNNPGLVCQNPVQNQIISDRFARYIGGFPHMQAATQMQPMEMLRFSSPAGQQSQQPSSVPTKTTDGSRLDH


What was measured:
GST-PIF4 [1] = target: T1, GST-PIF4; experiment: EMSA
GST-PIF4 [2] = target: T1, GST-PIF4; experiment: competition

Binder | binding result (GST-PIF4 [1]) | binding result (GST-PIF4 [2])
PIF4 promoter probe (G-box) (dsDNA) DNA 1: ATTCCAACACAATGTCCCAGAACTTGCCACGTGTCGTTCATTTCAAAAGATTGCAGTACT DNA 2: AGTACTGCAATCTTTTGAAATGAACGACACGTGGCAAGTTCTGGGACATTGTGTTGGAAT | binds | 
PIF4-MU probe (CACGTG to AACGTG) (dsDNA) DNA 1: ATTCCAACACAATGTCCCAGAACTTGCAACGTGTCGTTCATTTCAAAAGATTGCAGTACT DNA 2: AGTACTGCAATCTTTTGAAATGAACGACACGTTGCAAGTTCTGGGACATTGTGTTGGAAT |  | no binding

From PMC7748022
